Target: T1, WT SARS-CoV-2 RBD protein (SARS-CoV-2, Wuhan-Hu-1 (WT), UniProt P0DTC2)
T1 construct: also called WT RBD
Assay: ELISA
Settings: both partners purified

B1: neutralizing MAb 2H2 (antibody, V domains shown)
VH: QVQLKQSGPSLVQPSQSLSITCTVSGFSLTSYGVHWVRQSPGKGLEWLGVMWRGGNTDYNAAFMSRLSITKDNSKSQVFFKMNSLQTDDTAIYYCAKNGGAHAMDFWGQGTSVTVSS
VL: NIVLTQSPASLAVSLGQRATISCRASESVDSYGNSFLHWYQQKPGQPPKLLIYLASNLESGVPARFSGSGSRTDFTLTIDPVEADDAATYYCQQNNEDPFTFGSGTKLEIK
Question: Does B1 bind?
Answer: binds

B2: neutralizing MAb 3C1 (antibody, V domains shown)
VH: EVQLQESGPSLVKPSQTLSLTCSVTGDSITNGYWNWIRKFPGNKLEYMGYISYSGSTYYSPSLKSRISITRDTSKNQHYLQLNSVTSEDTATYYCASDYHGSKYYFDYWGQGTTLTVSS
VL: DIVMTQSHKFMSTSVGHRVSITCKASQDVGNDVAWYQQKPGQSPKLLIYWASTRHTGVPDRFTGSGSGTDFTLTISNVQSEDLADYFCQQYNRYPYTFGGGTKLEIK
Question: Does B2 bind?
Answer: binds
